Measured values from publication PMC3740164 (Developmental cell, 2013).

Target: full-length His6-PIPKIγi5 (human, UniProt O60331-3 1-707)
Experiment: pull-down

B1: GST-SNX5 (natural protein, UniProt Q9Y5X3 1-404, looked up)
chain: MAAVPELLQQQEEDRSKLRSVSVDLNVDPSLQIDIPDALSERDKVKFTVHTKTTLPTFQSPEFSVTRQHEDFVWLHDTLIETTDYAGLIIPPAPTKPDFDGPREKMQKLGEGEGSMTKEEFAKMKQELEAEYLAVFKKTVSSHEVFLQRLSSHPVLSKDRNFHVFLEYDQDLSVRRKNTKEMFGGFFKSVVKSADEVLFTGVKEVDDFFEQEKNFLINYYNRIKDSCVKADKMTRSHKNVADDYIHTAACLHSLALEEPTVIKKYLLKVAELFEKLRKVEGRVSSDEDLKLTELLRYYMLNIEAAKDLLYRRTKALIDYENSNKALDKARLKSKDVKLAEAHQQECCQKFEQLSESAKEELINFKRKRVAAFRKNLIEMSELEIKHARNNVSLLQSCIDLFKNN
- binding result: binds
